According to patent US20240158517A1 (HIFIBIO HK, published 2024):
Where a chain is given by its changes, count along the chain named. Names may count otherwise. Like-named read-outs stand apart in the source and are kept apart here.

Key:
human CXCR5 [1] = biological target: T1, human CXCR5 (human, UniProt P32302 1-372); experiment: binding to hCXCR5, Exp 2 (assay not given)
T1 construct: whole, on cells; Always presented on cells; one entry is used for all cell lines; also called hCXCR5; C-X-C chemokine receptor type 5
T1 sequence (looked up): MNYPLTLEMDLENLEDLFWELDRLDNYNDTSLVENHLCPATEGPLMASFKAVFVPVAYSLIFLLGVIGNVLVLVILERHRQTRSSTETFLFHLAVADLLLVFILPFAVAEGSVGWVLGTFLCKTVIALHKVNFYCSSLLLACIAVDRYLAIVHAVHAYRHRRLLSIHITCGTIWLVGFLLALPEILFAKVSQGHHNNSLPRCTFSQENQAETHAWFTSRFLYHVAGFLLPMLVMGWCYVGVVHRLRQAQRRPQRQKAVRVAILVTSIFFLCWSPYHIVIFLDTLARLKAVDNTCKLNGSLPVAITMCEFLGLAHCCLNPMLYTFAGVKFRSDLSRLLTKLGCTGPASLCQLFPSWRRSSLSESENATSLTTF

human CXCR5 [2] = biological target: T1, human CXCR5; experiment: cell-based or functional assay
human CXCR5 [3] = biological target: T1, human CXCR5; experiment: flow cytometry on adherent DX002 cells expressing CXCR5, MFI
human CXCR5 [4] = biological target: T1, human CXCR5; experiment: binding to hCXCR5, Exp 1 (assay not given)
human CXCR5 [5] = biological target: T1, human CXCR5; experiment: binding to DX002 cells expressing CXCR5
human CXCR5 [6] = biological target: T1, human CXCR5; experiment: flow cytometry on DX002 cells expressing CXCR5, MFI
murine CXCR5 [7] = biological target: T2, murine CXCR5 (mouse, UniProt Q04683 1-374); experiment: flow cytometry, transiently transfected cells
T2 construct: whole, on cells; also called mouse CXCR5 ortholog
T2 sequence (looked up): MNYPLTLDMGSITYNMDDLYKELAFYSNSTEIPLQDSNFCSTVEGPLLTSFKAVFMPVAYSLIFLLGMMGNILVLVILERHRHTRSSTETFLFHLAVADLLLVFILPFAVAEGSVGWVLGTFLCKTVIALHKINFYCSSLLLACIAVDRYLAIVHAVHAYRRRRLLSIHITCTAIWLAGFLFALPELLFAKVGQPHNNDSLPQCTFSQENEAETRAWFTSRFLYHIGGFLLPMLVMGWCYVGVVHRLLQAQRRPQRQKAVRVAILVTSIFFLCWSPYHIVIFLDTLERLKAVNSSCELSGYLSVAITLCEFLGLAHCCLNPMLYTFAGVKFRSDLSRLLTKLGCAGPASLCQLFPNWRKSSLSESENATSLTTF

human CXCR3 [8] = biological target: T3, human CXCR3 (human, UniProt P49682 1-368, limits assumed); experiment: specificity assay by flow cytometry
T3 construct: also called hCXCR3
T3 sequence (looked up): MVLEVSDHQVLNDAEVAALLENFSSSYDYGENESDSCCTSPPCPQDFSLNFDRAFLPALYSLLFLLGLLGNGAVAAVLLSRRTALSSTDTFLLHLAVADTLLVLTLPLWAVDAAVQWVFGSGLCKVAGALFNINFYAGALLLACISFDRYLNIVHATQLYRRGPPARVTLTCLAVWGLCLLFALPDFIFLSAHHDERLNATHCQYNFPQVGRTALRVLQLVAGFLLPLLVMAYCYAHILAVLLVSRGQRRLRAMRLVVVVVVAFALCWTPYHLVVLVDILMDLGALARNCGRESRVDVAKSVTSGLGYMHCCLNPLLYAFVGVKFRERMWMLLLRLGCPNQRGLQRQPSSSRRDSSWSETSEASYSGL

human CXCR5 [9] = biological target: T1, human CXCR5; experiment: flow cytometry on an adherent stable cell line expressing hCXCR5, MFI normalized on the benchmark MFI
Method: In order to test the binding capacity to CXCR5, six chimeric monoclonal antibodies were tested in binding assay using adherent stable cell line expressing the target antigen hCXCR5.

cynomolgus CXCR5 = biological target: T4, cynomolgus CXCR5 (cynomolgus monkey, UniProt G8F5K4 1-372); experiment: flow cytometry on cells transiently transfected with cynomolgus CXCR5
T4 construct: whole, on cells; also called monkey CXCR5 ortholog
T4 sequence: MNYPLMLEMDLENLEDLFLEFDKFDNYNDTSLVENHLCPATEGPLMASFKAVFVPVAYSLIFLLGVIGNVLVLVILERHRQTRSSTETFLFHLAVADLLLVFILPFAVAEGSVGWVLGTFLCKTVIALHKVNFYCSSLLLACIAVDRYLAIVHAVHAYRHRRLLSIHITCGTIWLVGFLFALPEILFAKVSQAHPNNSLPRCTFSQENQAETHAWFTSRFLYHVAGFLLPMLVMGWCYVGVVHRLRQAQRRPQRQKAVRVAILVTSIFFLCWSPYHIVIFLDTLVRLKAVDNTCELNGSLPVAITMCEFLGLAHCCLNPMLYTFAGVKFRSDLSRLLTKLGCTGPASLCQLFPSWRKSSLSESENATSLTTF

murine CXCR5 [10] = biological target: T2, murine CXCR5; experiment: flow cytometry on cells transiently transfected with murine CXCR5
human CXCR3 [11] = biological target: T3, human CXCR3; experiment: flow cytometry (MFI) on hCXCR3
human CXCR5 [12] = biological target: T1, human CXCR5
CD16 = CD16 (UniProt P08637 17-254, limits assumed); experiment: cell-based or functional assay
CD16, sequence (P08637 17-254 limits assumed): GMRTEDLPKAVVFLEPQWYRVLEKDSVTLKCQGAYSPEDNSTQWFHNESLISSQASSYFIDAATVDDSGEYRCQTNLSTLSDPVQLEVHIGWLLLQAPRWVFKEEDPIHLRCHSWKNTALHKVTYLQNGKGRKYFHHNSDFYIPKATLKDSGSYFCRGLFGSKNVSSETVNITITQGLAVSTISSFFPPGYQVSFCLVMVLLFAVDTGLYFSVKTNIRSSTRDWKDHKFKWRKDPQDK

human CXCR5 [13] = biological target: T1, human CXCR5; experiment: flow cytometry on CXCR5+ Raji cells, MFI

B1: HFB2-4hG1DE (antibody, V domains shown)
VH: QVQLKESGPGLVAPSQSLSITCTVSGFSLTSYGVSWVRQPPGKGLEWLGVIWGDGSTNYHSGLISRLSISKDNSKSQVFLKLNSLQSDDTATYYCARVVYWGQGTLVTVSA
VL: DIVMTQAAPSVPVTPGESISISCRSSKSLLHSNGKTYLYWFLQRPGQSPQLLLYRMSNLASGVPDRFSGSGSGTAFTLRISRVEAEDVGVYYCMQHLEYPYTFGGGTKLEIK
notes: Chimeric HFB2-4 in the DE scaffold: human IgG1 constant region with S239D/I332E; also called HFB2-4DE
Human CXCR5 [1]
  EC50: 1300 pM
Human CXCR5 [2]
  ADCC lysis of Raji cells by primary NK cells, EC50: 0.76 pM
  ADCC lysis of peripheral primary B cells by primary NK cells, EC50: 0.00044 pM
Human CXCR5 [3]
  EC50: 112 pM
Human CXCR5 [4]
  EC50: 1000 pM
Human CXCR5 [5]
  EC50: 186 pM

B2: afucosylated HFB2-4hG1 (antibody, V domains shown)
VH: B1 VH
VL: B1 VL
modifications: afucosylated (no core fucose on the Fc N-glycan of the heavy chain)
notes: Afucosylated format of the chimeric HFB2-4hG1 (human IgG1, no DE mutation); also called afu-HFB2-4hG1; AfuHFB2-4hG1
Human CXCR5 [6]
  EC50: 810 pM

B3: HFB2-5-hG1 (antibody, V domains shown)
VH: B1 VH with G62T, S87T, V99A
VL: B1 VL with V11I, I19V, L53I
notes: Mouse-human chimeric antibody, human IgG1 constant region
Murine CXCR5 [7]
  binding result: no binding
Human CXCR3 [8]
  binding result: no binding
Human CXCR5 [9]
  EC50: 3430 pM
Cynomolgus CXCR5
  binding result: no binding (tested: about 150 nM)

B4: HFB2-2-hG1 (antibody, V domains shown)
VH: EVQLVETGGGLVQPKGSLKLSCAASGFTFNTNAMNWVRQAPGKGLEWVARIRSKSNNYATHYVDSVKDRFTISRDDSQSMLYLQMNNLKTEDTAMYYCVSWDPFAYWGQGTLVTVSA
VL: NIMMTQSPSSLAVSAGEKVTMSCKSSQSVLYSSNQKNYLAWYQQKPGQSPKLLIYWASTRASGVPDRFTGSGSGTDFTLTISSVQTEDLAVYYCHQYLSSWTFGGGAKLEIK
notes: as for B3
Murine CXCR5 [10]
  binding result: no binding (tested: about 150 nM)
Human CXCR3 [11]
  binding result: no binding (tested: about 150 nM)
Human CXCR5 [9]
  EC50: 482 pM
Cynomolgus CXCR5
  binding result: no binding (tested: about 150 nM)

B5: HFB2-1-hG1 (antibody, V domains shown)
VH: EVKLEESGGGLVQPGGSMKLSCVASGFTFSNYWMNWVRQSPEKGLEWVAQIRLKSDNYATHYTESVKGRFTISRDDSKSSVYLQMNNLRAEDTGIYYCTPPNFDYWGQGTTLTVSS
VL: DIVMTQAAPSVTVTPGESVTISCRSTTSLLHRSGKHKFYWFLQRPGQSPQLLIYYVSNLASGVPDRFSGSGSGTDFTLRISRVEAEDFGVYYCMQSLEFPLTFGTGTKLEIK
notes: Mouse-human chimeric antibody: murine VH and VL on the human IgG1 constant region
Murine CXCR5 [10]
  binding result: no binding (tested: about 150 nM)
Human CXCR3 [11]
  binding result: no binding (tested: about 150 nM)
Human CXCR5 [9]
  EC50: 481 pM
Cynomolgus CXCR5
  binding result: no binding (tested: about 150 nM)

B6: HFB2-3-hG1 (antibody, V domains shown)
VH: QVQLKQSGPGLVQPSQSLSITCTVSGFSLTSYGVHWVRQSPGKGLEWLGVTWSGGRTDYNAAFISRLSINKDNSKSQVFFKMNSLQVNDTAIYYCARGGNYWGQGTSVTVSS
VL: not shown
notes: as for B3
Murine CXCR5 [10]
  binding result: no binding (tested: about 150 nM)
Human CXCR3 [11]
  binding result: no binding (tested: about 150 nM)
Cynomolgus CXCR5
  binding result: no binding (tested: about 150 nM)
Human CXCR5 [12]
  EC50: 569 pM

B7: HFB2-4hz9-hG1DE (antibody, V domains shown)
VH: QVQLQESGPGLVKPSETLSLTCTVSGFSLTSYGVSWVRQPPGKGLEWIGVIWGDGSTNYNPSLKSRVTISKDTSKNQVSLKLSSVTAADTAVYYCARVVYWGQGTLVTVSS
VL: DIVMTQSPLSLPVTPGEPASISCRSSKSLLHSNGKTYLYWFLQKPGQSPQLLIYRMSNLASGVPDRFSGSGSGTDFTLKISRVEAEDVGVYYCMQHLEYPYTFGGGTKVEIK
notes: Humanized (VH3/VL1), human IgG1 constant region with S239D/I332E (hG1DE)
Human CXCR5 [1]
  EC50: 1000 pM
CD16
  ADCC activity, EC50: 1 to 2 pM
Human CXCR5 [4]
  EC50: 1300 pM

B8: afucosylated HFB2-4hz42-hG1 (antibody, V domains shown)
VH: QVQLVQSGAEVKKPGASVKVSCKASGFSLTSYGVSWVRQAPGQGLEWMGVIWGDGSTNYAQKLQGRVTMTKDTSTSTAYMELRSLRSDDTAVYYCARVVYWGQGTLVTVSS
VL: EIVMTQSPATLSVSPGERATLSCRSSKSLLHSNGKTYLYWFQQKPGQAPRLLIYRMSNLASGIPARFSGSGSGTEFTLTISSVQSEDVAVYYCMQHLEYPYTFGQGTKLEIK
modifications: afucosylated (no core fucose on the Fc N-glycan of the heavy chain)
notes: Afucosylated format of humanized HFB2-4hz42-hG1 (human IgG1); also called afu-HFB2-4hz42-hG1; Afu-HFB2-4hz42-hG1
Human CXCR5 [6]
  EC50: 820 pM

B9: HFB2-4hz42hG1DE (antibody, V domains shown)
VH: B8 VH
VL: B8 VL
notes: Humanized (VH10/VL6) in hG1DE format
Human CXCR5 [3]
  EC50: 123 pM
Human CXCR5 [5]
  EC50: 171 pM

B10: HFB2-4hz42hG1 (antibody, V domains shown)
VH: B8 VH
VL: B8 VL
notes: Humanized, human IgG1 (hG1); also called HFB2-VH10VL6
Human CXCR5 [13]
  EC50 (read off the curve): ~300 pM
